Experiment: soluble on expression in E. coli; label from the status in PepcDB or PDB records
In the case of “AGKTLYGKLWDIHEVARRDDGSSLIYIDRHILHEVTSPQAFEGLRLAGRPLWRVNANIATPDHNVPTTKAERQGSLLSIADTVSRLQVQTLDENCDDFGIFEFKMNDVRQGIVHVIGPEQGATLPGMTVVCGDSHTSTHGAFGALAHGIGTSEVEHVLATQCLVTQKMKN”, the “soluble on expression in E. coli” value was “not soluble”. For “AHHHHHHASAKWVCKICGYIYDEDAGDPDNGISPGTKFEELPDDWVCPICGAPKSEFEKLEDGSNPMPRKISFDPPSFIQLTRKQNKELLEFVLAEFEIYLPITTVHAYLLAKAFKGKNPKEEVQKLRDIVKIVDLTDELLGEIAEIDASLIKDGYFFTLEDLITAVSAITSKSLLVVNGNAEKYSPLRKYGLDCVNYEKFLEEVEVLAREEAKREKII”, the “soluble on expression in E. coli” value was “soluble”. In the case of “AHHHHHHASAKWVCKICGYIYDEDAGDPDNGISPGTKFEELPDDWVCPICGAPKSEFEKLEDGSRGAYILLLYLPRNSIIKTKGKVFRLKKGYYAYVGSGMNSLEGRVLRHLRKDKKLHWHIDYLTLIATPLKAYLVPSPVRIEEELSKSLNMVGKVVKGFGSSDLSVPGNLFFFDKDPSEKIEEIVWAFLSRKPKSDDLRQDTS”, the “soluble on expression in E. coli” value was “soluble”. For “AHHHHHHGSAKLKEPIIAINFKTYIEATGKRALEIAKAAEKVYKETGVTIVVAPQLVDLRMIAESVEIPVFAQHIDPIKPGSHTGHVLPEAVKEAGAVGTLLNHSENRMILADLEAAIRRAEEVGLMTMVCSNNPAVSAAVAALNPDYVAVEPPELIGTGIPVSKAKPEVITNTVELVKKVNPEVKVLCGAGISTGEDVKKAIELGTVGVLLASGVTKAKDPEKAIWDLVSGIIKE”, the “soluble on expression in E. coli” value was “soluble”. In the case of “AHHHHHHGSDIKPGKITVQANPNMPEEIANLFRKQHYELVGRHSGVKLCHWLKKSLTEGRFCYKQKFYGIHSHRCLQMTPVLAWCTHNCIFCWRPMETFLGTEVPEPWDDPAFIVEESIKAQRKLLVGYKGNPKVDKKKFEEAWEPKHAAISLSGEPMLYPYMGDLVEEFHKRGFTTFIVTNGTVPESLREMIKDDKLPTQLYVSLTAPDIESYNKVNIPMIPDGWEKILEFLELMRDIPTRTVVRLTLVKGENMHNPEGYARLIMKARPMFVEAKAYMFVGFSRNRLTINNMPSHEDIREFAEALVKYLPGYHIEDEYEPSRVVLIMRDDVDPSGTGLEGRFIKH”, the “soluble on expression in E. coli” value was “not soluble”. With “AHHHHHHGSDWKGRDVISIRDFSKEDIEIVLSTAERLEKELKEKGQLEYARGKILATLFFEPSTRTRLSFESAMHRLGGAVIGFAEASTSSVKKGESLADTIKTVEQYSDVIVIRHPKEGAARLAAEVAEIPVINAGDGSNQHPTQTLLDLYTIRKEFGKIDGLKIGLLGDLKYGRTVHSLAEALAYYDVELYLISPELLRMPRHIVEELREKGVTVYETSDLMSVIGELDVLYVTRIQKERFPDEQEYLKVRGSYQVNLQVLSKAKETLKVMHPLPRVDEIHPEVDKTKHAIYFKQVFNGIPVRMALLGLVLGVI” the “soluble on expression in E. coli” value was “soluble”. For “AHHHHHHGSEELIREVILKNLTLNSAGGIGLEELDDGATIPLGDKHLVFTIDGHTVKPIFFPGGDIGRLAVSGTVNDLAVMGAQPLAIASSLIIEEGFEVSELEKILKSMDETAKEVPVPIVTGDTKVVEDRIGIFVITAGVGVAERPISDAGAKVGDVVLVSGTIGDHGIALMSHREGISFETELKSDVAPIWDVVKAVADAIGWENIHAMKDPTRGGLSNALNEMARKANVGILVREEAIPIRPEVKAASEMLGISPYEVANEGKVVMIVAKEYAEEALEAMKKTEKGRDAAIIGEVIGEYRGKVILETGIGGRRFLEPPLGDPVPRVC”, the “soluble on expression in E. coli” value was “soluble”. With “AHHHHHHGSENPYEIVGVVAREILDSRGNPTVEVDVYTHVGMGRAAVPSGASTGTHEALELRDGGKRYHGKGVRRAVENVNKIIAPELIGMDVRWQREIDALLLELDGTENKSNVGANAILAVSLAVAKAAANSLELPLYQYLGGVNAYVLPVPLSNVINGGVHAGNDLDFQEFMIMPIGADSFREAIRWVSETYHVLKKVIMEKYGKNAVNVGDEGGFAPPMKEVTEPLDVLIKAIEEAGYKPGDEIALALDVASSELFNEETGKYVVGGKEYDRGELLELYKDLTSTYPIVSIEDPFHEEDWEGFVMITKELGHKVQIVGDDLFVTNPKRLRKGIELGAANALLLKVNQIGTLSEAMDAAFTAFRAGYGVIVSHRSGETEDATIADLAVALNAGQIKTGAPARSDRNAKYNQLIRIEEELEGVAVYAGKRFRKVFF” the “soluble on expression in E. coli” value was “soluble”. In the case of “AHHHHHHGSERAFIEWYPRGYGVAFKIKKKIYEKLSKYQKIEVYETEGFGRLLALDGTVQLVTLGERSYHEPLVHPAMLAHPKPKRVLVIGGGDGGTVREVLQHDVDEVIMVEIDEDVIMVSKDLIKIDNGLLEAMLNGKHEKAKLTIGDGFEFIKNNRGFDVIIADSTDPVGPAKVLFSEEFYRYVYDALNNPGIYVTQAGSVYLFTDELISAYKEMKKVFDRVYYYSFPVIGYASPWAFLVGVKGDIDFTKIDRERAKKLQLEYYDPLMHETLFQMPKYIRETLQRL”, the “soluble on expression in E. coli” value was “soluble”. With “AHHHHHHGSIDPRELAISAKLEGVKRIIPVVSGKGGVGKSLISTTLALVLSEQKYKVGLLDLDFHGASDHVILGFEPKELPEEDKGVIPPTVHGIKFMTIAYYTEDRPTPLRGKEISDALIELLTITRWDELDFLVVDMPPGMGDQFLDVLKYFKRGEFLIVATPSKLSLNVVRKLIELLKEEKHQILGIVENMKLDEEEDVMRIAQEYGIRYLGGIPLYRDLESKVGNVNELLATEFAEKIRGIAKKI” the “soluble on expression in E. coli” value was “soluble”. For “AHHHHHHGSKKKYKKVVVGGTFDRLHLGHKALLRKAFEVGEIVYIGLTSDEMIKEKQYSERILPYEKRLLDLIKFLEVNKYRNYRIMKIHNAIGFTTKIKSLEAIVVSEETYKGAVLVNKAREELGLRPLDIVVIPIIRSRLGCKISSSLIRAGLIDPFGNPIRREEK”, the “soluble on expression in E. coli” value was “not soluble”. With “AHHHHHHGSKVLVTGFEPFGGEKINPTERIAKDLDGIKIGDAQVFGRVLPVVFGKAKEVLEKTLEEIKPDIAIHVGLAPGRSAISIERIAVNAIDARIPDNEGKKIEDEPIVPGAPTAYFSTLPIKKIMKKLHERGIPAYISNSAGLYLCNYVMYLSLHHSATKGYPKMSGFIHVPYIPEQIIDKIGKGQVPPSMCYEMELEAVKVAIEVALEELL” the “soluble on expression in E. coli” value was “soluble”. For “AHHHHHHGSVKVTFLGHAAFYIEGSKKILIDPFLSGNPVASAKPDDFKSVDLILVTHAHGDHLGDVGTIAKRTGAKVVAMYDLANYIAEKYKGVETIGMNYGPTKVDEVEIVQVPAWHSSSDGKYSIGNACGYIVKLDGVTIYHAGDTYVFKDMELFAELYGPIDVALLPIGGHFTMGVREAAKAVELLKPRHVIPMHYNTWPPIAADPEEFKKLVGEKAKVVILKPGESLEL”, the “soluble on expression in E. coli” value was “not soluble”. With “AHHHHHHSSGLEVLFQGPNELNYGQLSISPIFQGGSYQLNNKSIDISSLLLDKLSGESQTVVMKFKADKPNSLQALFGLSNSKAGFKNNYFSIFMRDSGEIGVEIRDAQKGINYLFSRPASLWGKHKGQAVENTLVFVSDSKDKTYTMYVNGIEVFSETVDTFLPISNINGIDKATLGAVNREGKEHYLAKGSIDEISLFNKAISDQEVSTIPLSNPFQLIFQSGDSTQANYFRIPTLYTLSSGRVLSSIDARYGGTHDSKSKINIATSYSDDNGKTWSEPIFAMKFNDYEEQLVYWPRDNKLKNSQISGSASFIDSSIVEDKKSGKTILLADVMPAGIGNNNANKADSGFKEINGHYYLKLKKNGDNDFRYTVRENGVVYNETTNKPTNYTINDKYEVLEGGKSLTVEQYSVDFDSGSLRERHNGKQVPMNVFYKDSLFKVTPTNYIAMTTSQNRGESWEQFKLLPPFLGEKHNGTYLCPGQGLALKSSNRLIFATYTSGELTYLISDDSGQTWKKSSASIPFKNATAEAQMVELRDGVIRTFFRTTTGKIAYMTSRDSGETWSKVSYIDGIQQTSYGTQVSAIKYSQLIDGKEAVILSTPNSRSGRKGGQLVVGLVNKEDDSIDWKYHYDIDLPSYGYAYSAITELPNHHIGVLFEKYDSWSRNELHLSNVVQYIDLEINDLTK” the “soluble on expression in E. coli” value was “soluble”. For “AIAADRTVPHAYPMSMDYEMCTPPRIYDQNFAEALSPKELLAPVLYHGYYIRPRINKQLERGFSQVESEDDWYRVLLDVCQFTPDEISVRTVDNLLEVSARHAQRMDQHGFVSREFTRTYILPMGVDPLLVQVSLSHDGILCIQAPRKTEDLEPQINQLKIKVEKKESTSK”, the “soluble on expression in E. coli” value was “soluble”. For “AIAAEMKTYSHRTMPSACTLVMCSSVESGLPGRDGRDGREGPRGEKGDPGLPGAAGQAGMPGQAGPVGPKGDNGSVGEPGPKGDTGPS”, the “soluble on expression in E. coli” value was “soluble”. In the case of “AIAARPPPDPLYILRGSGASVNALHFCCDGDGPPLLYSGSGKGAVHVWNLSTRRAERVLESHAGNSVIWLNTFNNSRSCLISQGRDMRVCVWDLSEGRSAVTDSLHTGSVGFCQCSLLGSRLGSTLLAHPTQHMEEVSVVEMSSWTQVCSLKPDSNLGMLMSMKMWQADSGPVLCAGYEDGSVVLWDVSHRRPFSLLKVHPEPVMSLDVDVCRQKGISGSSENILQSWRLDNQQSLQMHDSIQMTNPGVSQLRIRADGKILASAGWDNNIRVFGWKKLKPLAVLQHHTDMVNSVAFSDHQDPTQRLLAAGSKDQRISVWSIYSES”, the “soluble on expression in E. coli” value was “soluble”. In the case of “AIAEEWDVPQMKKEVESLKYQLAFQREMASKTIPELLKWIEDGIPKDPFLNPDLMKNNPWVEKGKCTIL”, the “soluble on expression in E. coli” value was “soluble”. With “AIAGCASAKHVSTVQNEDDAQNGKNYQNGDAFCDEYRIKPVEEVKYMKNGEEEEQKILSKNQENLVSCLEEKSATHTARSKSNTEAAGAGHPYRINIHISESQQEFFRMLDEKIEKGRDYCSEEEDIT” the “soluble on expression in E. coli” value was “soluble”. For “AIAPTATYAALIHADLDVLWGLLLDKLQSDEQFMPGLERAEIVPLSVAEDPTGVARFRQQHDRRLYFSDGRLVEERVTIDEERKNILLELRNDARYTGYVSTVLLPCPFPEATSGAHVLVRTMDWRAKRSLTDDEIEEGELLATKIRESTLRLKHEVESLRWSLDDSKDPDDE”, the “soluble on expression in E. coli” value was “soluble”. In the case of “AIARGPEPGPQPTMEGDVLDTLEALGYKGPLLEEQALTKAAEGGLSSPEFSELCIWLGSQIKSLCNLEESITSAGRDDLESFQLEISGFLKEMACPYSVLISGDIKDRLKKKEDCLKLLLFLSTELQASQILQNKKHKNSQLDKNSEVYQEVQAMFDTLGIPKSTTSDIPHMLNQVESKVKDILSKVQKNHVGKPLLKMDLNSEQAEQLERINDALSCEYECRRRMLMKRLDVTVQSFGWSDRAKVKTDDIARIYQPKRYALSPKTTITMAHLLAAREDLSKIIRTSSGTSREKTACAINKVGVSFSTVENELMISYLMFLQILVYFSFMSW”, the “soluble on expression in E. coli” value was “soluble”. For “AIASARVRSRSRGRGDGQEAPDVVAFVAPGESQQEEPPTDNQDIEPGQEREGTPPIEERKVEGDCQEMDLEKTRSERGDGSDVKEKTPPNPKHAKTKEAGDGQP”, the “soluble on expression in E. coli” value was “soluble”. For “AIELVPEHQTVPVSIGVPATLRCSMKGEAIGNYYINWYRKTQGNTMTFIYREKDIYGPGFKDNFQGDIDIAKNLAVLKILAPSERDEGSYYCACDTLGMGGEYTDKLIFGKGTRVTVEPRSQPHTKPSVFVMKNGTNVACLVKEFYPKDIRINLVSSKKITEFDPAIVISPSGKYNAVKLGKYEDSNSVTCSVQHDNKTVHSTDFEVKTDSTDHVKPKETENTKQPSKS”, the “soluble on expression in E. coli” value was “soluble”. In the case of “AKQQKHFVLVHGGCLGAWIWYKLKPLLESAGHKVTAVDLSAAGINPRRLDEIHTFRDYSEPLMEVMASIPPDEKVVLLGHSFGGMSLGLAMETYPEKISVAVFMSAMMPDPNHSLTYPFEKYNEKCPADMMLDSQFSTYGNPENPGMSMILGPQFMALKMFQNCSVEDLELAKMLTRPGSLFFQDLAKAKKFSTERYGSVKRAYIFCNEDKSFPVEFQKWFVESVGADKVKEIKEADAMGMLSQPREVCKCLLDISDS”, the “soluble on expression in E. coli” value was “soluble”.

— the DeepSol protein solubility set
